The values that follow come from paper PMC4482071.

In the test the target is Aspergillus nidulans (An) Rpf2 (Aspergillus nidulans). Put plainly: SEC; size exclusion chromatography of the An Rpf2-Rrs1 complex in solution; conditions not given (preparation in ref. 22). (In general: In gel filtration, larger molecules generally elute earlier.)

Take “Aspergillus nidulans (An) Rrs1 (natural protein)”: the stoichiometry N – broadly, the number of molecules, sites or subunits per partner or assembly – was 1.
